{
  "source": "patent US6747005",
  "proteins": {"B1": {"name": "recombinant CBP HAT domain (amino acids 1098-1758) (protein)", "chain": "TLEALYRQDPESLPFRQPVDPQLLGIPDYFDIVKNPMDLSTIKRKLDTGQYQEPWQYVDDVWLMFNNAWLYNRKTSRVYKFCSKLAEVFEQEIDPVMQSLGYCCGRKYEFSPQTLCCYGKQLCTIPRDAAYYSYQNRYHFCEKCFTEIQGENVTLGDDPSQPQTTISKDQFEKKKNDTLDPEPFVDCKECGRKMHQICVLHYDIIWPSGFVCDNCLKKTGRPRKENKFSAKRLQTTRLGNHLEDRVNKFLRRQNHPEAGEVFVRVVASSDKTVEVKPGMKSRFVDSGEMSESFPYRTKALFAFEEIDGVDVCFFGMHVQNTALIAPHQIQGRVYISYLDSIHFFRPRCLRTAVYHEILIGYLEYVKKLGYVTGHIWACPPSEGDDYIFHCHPPDQKIPKPKRLQEWYKKMLDKAFAERIINDYKDIFKQANEDRLTSAKELPYFEGDFWPNVLEESIKELEQEEEERKKEESTAASETPEGSQGDSKNAKKKNNKKTNKNKSSISRANKKKPSMPNVSNDLSQKLYATMEKHKEVFFVIHLHAGPVISTQPPIVDPDPLLSCDLMDGRDAFLTLARDKHWEFSSLRRSKWSTLCMLVELHTQGQDRFVYTCNECKHHVETRWHCTVCEDYDLCINCYNTKSHTHKMVKWGLGLDDEGSSQG"}},
  "key": {"[1]": {"molecular_target": "ΔN-Rch1 lacking the Importin β binding site, P52292"}, "[2]": {"molecular_target": "Rch1 N-terminal fragment (residues 1-95), P52292"}, "[3]": {"molecular_target": "recombinant Importin α Rch1, full-length, P52292"}},
  "data": [
    {"protein": "B1", "values": [
      {"measurement": "acetylation ([14-C]-acetyl coA, SDS-PAGE, blot exposed to film)", "setting": "[1]", "result": "Only the full-length Rch1 and the N-terminal 1-95 fragment showed acetylation. (ΔN-Rch1 showed none)"},
      {"measurement": "acetylation ([14-C]-acetyl coA, SDS-PAGE, blot exposed to film)", "setting": "[2]", "result": "Only the full-length Rch1 and the N-terminal 1-95 fragment showed acetylation."},
      {"measurement": "acetylation (analysis as in the first experiment)", "setting": "Importin α7", "result": "CBP was shown to acetylate Importin α family members, Rch1 and Importin α7"},
      {"measurement": "acetylation ([14-C]-acetyl coA, SDS-PAGE, blot exposed to film)", "setting": "[3]", "result": "Only the full-length Rch1 and the N-terminal 1-95 fragment showed acetylation."},
      {"measurement": "acetylation (analysis as in the first experiment)", "setting": "[3]", "result": "CBP was shown to acetylate Importin α family members, Rch1 and Importin α7"}
    ]}
  ]
}
